Reference: paper PMC5785985, “Molecular snapshots of APE1 proofreading mismatches and removing DNA damage”

Key:
APE1 (ΔAPE1 C138A) [1] = molecular target: T1, APE1 (ΔAPE1 C138A) (Homo sapiens, UniProt P27695 44-318, C138A); assay: X-ray crystallography (2.6 Å); Crystallization: 7-14% PEG 20K, 100 mM sodium citrate pH 5.0, 15% glycerol, 5 mM CaCl2, 20 °C; 0.56 mM DNA, 10-12 mg/ml APE1; data at 100 K; settings: protein: recombinant; nicked duplex, three strands 1:1:1, blunt ends, fully paired
APE1 (ΔAPE1 C138A) [2] = molecular target: T1, APE1 (ΔAPE1 C138A); assay: X-ray crystallography; 5 mM CaCl2, no metal resolved; Crystallization: 7-14% PEG 20K, 100 mM sodium citrate pH 5.0, 15% glycerol, 5 mM CaCl2, 20 °C; 0.56 mM DNA, 10-12 mg/ml APE1; data at 100 K; settings: protein: recombinant; nicked duplex, three strands 1:1:1, blunt ends, C/T mismatch at 3' end of nick
[3] = molecular target: APE1 F266A (ΔAPE1 C138A F266A) (Homo sapiens, UniProt P27695 44-318, C138A;F266A); assay: X-ray crystallography; Crystallization: 7-14% PEG 20K, 100 mM sodium citrate pH 5.0, 15% glycerol, 5 mM CaCl2, 20 °C; 0.56 mM DNA, 10-12 mg/ml APE1; data at 100 K; settings: protein: recombinant; nicked duplex, three strands 1:1:1, blunt ends, C/T mismatch at 3' end of nick
APE1 F266A (ΔAPE1 C138A F266A), sequence (P27695 44-318 C138A/F266A): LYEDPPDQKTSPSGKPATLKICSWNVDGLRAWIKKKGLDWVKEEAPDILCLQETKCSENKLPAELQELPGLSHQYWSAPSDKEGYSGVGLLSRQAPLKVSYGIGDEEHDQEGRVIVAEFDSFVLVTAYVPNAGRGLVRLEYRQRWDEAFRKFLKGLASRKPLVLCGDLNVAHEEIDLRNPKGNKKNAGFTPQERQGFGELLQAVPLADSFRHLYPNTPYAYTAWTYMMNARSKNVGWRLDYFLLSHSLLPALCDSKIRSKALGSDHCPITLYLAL

APE1 (ΔAPE1 C138A) [4] = molecular target: T1, APE1 (ΔAPE1 C138A); assay: X-ray crystallography (2.3 Å); MgCl2 soak 2.5 h, no metal resolved; Crystallization: 7-14% PEG 20K, 100 mM sodium citrate pH 5.0, 15% glycerol, 5 mM CaCl2, 20 °C; 0.56 mM DNA, 10-12 mg/ml APE1; data at 100 K; settings: protein: recombinant; 1-nt gapped duplex, three strands, blunt ends
APE1 (ΔAPE1 C138A) [5] = molecular target: T1, APE1 (ΔAPE1 C138A); assay: X-ray crystallography (2.10 Å); no metal resolved; Crystallization: 7-14% PEG 20K, 100 mM sodium citrate pH 5.0, 15% glycerol, 5 mM CaCl2, 20 °C; 0.56 mM DNA, 10-12 mg/ml APE1; data at 100 K; settings: protein: recombinant; nicked duplex, three strands 1:1:1, blunt ends, C/T mismatch at 3' end of nick

T1 sequence (P27695 44-318 C138A): as the sequence (P27695 44-318 C138A/F266A) above, with A223F counted along it

B1: 21-mer nicked duplex, 3' C/G match (dsDNA)
DNA 1: GGATCCGTCGAGCGCATCAGC
DNA 2: GCTGATGCGC
DNA 3: TCGACGGATCC
modifications: 5'-phosphate on strand 3
binding result (APE1 (ΔAPE1 C138A) [1]): binds

B2: 21-mer nicked duplex, 3' C/T mismatch (dsDNA)
DNA 1: GGATCCGTCGATCGCATCAGC
DNA 2: GCTGATGCGC
DNA 3: TCGACGGATCC
modifications: 5'-phosphate on strand 3
binding result (APE1 (ΔAPE1 C138A) [2]): binds

B3: 21-mer nicked duplex, 3' C/T mismatch (F266A crystal) (dsDNA)
DNA 1: GGATCCGTCGATCGCATCAGC
DNA 2: GCTGATGCGC
DNA 3: TCGACGGATCC
modifications: 5'-phosphate on strand 3; phosphorothioate not stated for this crystal
binding result [3]: binds

B4: 21-mer duplex with 1-nt gap (exo product) (dsDNA)
DNA 1: GGATCCGTCGATCGCATCAGC
DNA 2: GCTGATGCG
DNA 3: TCGACGGATCC
modifications: 5'-phosphate on strand 3; 3'-OH on strand 2
binding result (APE1 (ΔAPE1 C138A) [4]): binds

B5: 21-mer nicked duplex, 3' C/T mismatch, phosphorothioate (dsDNA)
DNA 1: GGATCCGTCGATCGCATCAGC
DNA 2: GCTGATGCGC
DNA 3: TCGACGGATCC
modifications: phosphorothioate 5' to the 3'-terminal C of strand 2 (Sp and Rp); 5'-phosphate on strand 3
binding result (APE1 (ΔAPE1 C138A) [5]): binds
